From patent publication US20220363757A1 come the findings set out here.

By Kd is commonly meant the equilibrium constant for the complex coming apart. A low value points to higher affinity. Usually koff stands for the rate constant with which the complex falls apart. The term kon denotes the second-order rate constant of association. Read a high kon as faster complex formation.

The target of the experiment is cynomolgus LAG-3 ECD human IgG1 Fc fusion (cynomolgus; human), P18627. Kind of experiment: SPR, Fab over captured LAG-3 ECD-Fc. (In general: Surface plasmon resonance follows binding to a sensor surface in real time, without labels.)
Chain of cynomolgus LAG-3 ECD human IgG1 Fc fusion (cynomolgus; human), P18627 (P18627 other isoform, or with tags, fused parts or gaps, form in doubt): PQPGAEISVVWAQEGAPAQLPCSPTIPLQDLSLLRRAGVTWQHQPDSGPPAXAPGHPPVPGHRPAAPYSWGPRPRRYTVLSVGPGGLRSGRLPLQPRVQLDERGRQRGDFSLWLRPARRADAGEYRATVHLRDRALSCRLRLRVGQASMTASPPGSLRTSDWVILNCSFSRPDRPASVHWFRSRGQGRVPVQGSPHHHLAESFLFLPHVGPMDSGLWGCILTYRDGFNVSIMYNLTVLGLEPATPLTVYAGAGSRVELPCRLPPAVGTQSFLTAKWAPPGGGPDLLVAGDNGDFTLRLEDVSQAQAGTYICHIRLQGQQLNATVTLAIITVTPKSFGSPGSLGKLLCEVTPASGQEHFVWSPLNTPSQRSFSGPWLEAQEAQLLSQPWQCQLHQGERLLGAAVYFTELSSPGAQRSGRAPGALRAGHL

B1: Fab fragment of antibody 15532 (Fab, not shown: a dimerising Fc or GST)
heavy: QVQLQQWGAGLLRPSETLSLTCAVYGESFSGYYWNWIRQPPGKGLEWIGEINHSGSTNYNPSLKSRVTISVDTSKTQFSLKLSSVTAADTAVYYCARGWDLLDWNDYWNEYWGQGTLVTVSS
light: not shown
For the molecule B1, the Kd is 68 nM, the koff was found to be 0.0048 s⁻¹ and the kon came to 71000 M⁻¹ s⁻¹.

B2: Fab fragment of antibody 15431 (Fab, not shown: a dimerising Fc or GST)
heavy: QVQLQQSGPGLVKPSQTLSLTCAISGDSVSSNSAAWNWIRQSPSRGLEWLGRTYYRSKWYNDYAVSVKSRITINPDTSKNQFSLQLNSVTPEDTAVYYCARDDDWNDFDYWGQGTLVTVSS
light: not shown
As to B2, the Kd came out at 120 nM, the off-rate constant (koff) is 0.0068 s⁻¹ and the kon stood at 59000 M⁻¹ s⁻¹.

B3: Fab fragment of antibody 15011 (Fab, not shown: a dimerising Fc or GST)
heavy: EVQLLESGGGLVQPGGSLRLSCAASGFDFRSYAMMWVRQAPGKGLEWVGGINGEVGGSNTYYAPAVKGRATISRDNSKNTLYLQMNSLRAEDTAVYYCVKGAGACGICNDDIDAWGQGTLVTVSS
light: SYELTQDPAVSVALGQTVRITCSGAGSYAGSYYYGWHQQKPGQAPVTVIYDNDKRPSNIPDRFSGSSSGNTASLTITGAQAEDEADYYCGSTNDNDDGGLFGSGTKVTVLGQPKANPTVTLFPPSSEELQANKATLVCLISDFYPGAVTVAWKADGSPVKAGVETTKPSKQSNNKYAASSYLSLTPEQWKSHRSYSCQVTHEGSTVEKTVAPTECS
For the molecule B3, the Kd was 35 nM, the koff was found to be 0.0025 s⁻¹ and the kon amounted to 70000 M⁻¹ s⁻¹.
